# Laboratory results published in patent US20250122539A1, “LARGE SCALE PRODUCTION OF DIVARIN, DIVARINIC ACID AND OTHER ALKYL RESORCINOLS BY FERMENTATION” (priority 2021, published 2025).
# B1: At4CLL6: 4-coumarate--CoA ligase-like 6 from Arabidopsis thaliana (Uniprot Q84P24), SEQ ID NO: 11 (protein, listed as Arabidopsis thaliana)
# chain: MAATHLHIPPNPKTQTSHQNPPFWFSSKTGIYTSKFPSLHLPVDPNLDAVSALFSHKHHGDTALIDSLTGFSISHTELQIMVQSMAAGIYHVLGVRQGDVVSLVLPNSVYFPMIFLSLISLGAIVTTMNPSSSLGEIKKQVSECSVGLAFTSTENVEKLSSLGVSVISVSESYDFDSIRIENPKFYSIMKESFGFVPKPLIKQDDVAAIMYSSGTTGASKGVLLTHRNLIASMELFVRFEASQYEYPGSSNVYLAALPLCHIYGLSLFVMGLLSLGSTIVVMKRFDASDVVNVIERFKITHFPVVPPMLMALTKKAKGVCGEVFKSLKQVSSGAAPLSRKFIEDFLQTLPHVDLIQGYGMTESTAVGTRGFNSEKLSRYSSVGLLAPNMQAKVVDWSSGSFLPPGNRGELWIQGPGVMKGYLNNPKATQMSIVEDSWLRTGDIAYFDEDGYLFIVDRIKEIIKYKGFQIAPADLEAVLVSHPLIIDAAVTAAPNEECGEIPVAFVVRRQETTLSEEDVISYVASQVAPYRKVRKVVMVNSIPKSPTGKILRKELKRILTNSVS
# Assays:
# [1] = Partitioning of olivetolic acid between organic overlay and aqueous culture phase (shake flask, HPLC); format: physicochemical; settings: YP + 2% galactose culture
# Procedure: Precultures of LSC3-2 and LSC3-18 were inoculated from YPD streak plates and grown in 30 ml of YP+2% (w/v) glucose in baffled 250 ml shake flasks for approximately 18 hours overnight at 30° C. with 200 rpm shaking. Baffled 250 ml shake flasks containing 30 mL of YP+2% (w/v) galactose, 5 mL of IPM or diethyl sebacate, and 0.04% (w/v) hexanoic acid, were inoculated with 1 mL of preculture and grown for at 30° C. with 200 rpm shaking. After 24 and 48 hours, samples of cell culture broth plus overlay were sampled into microcentrifuge tubes and stored at −20° C. at least overnight. Sample tubes were thawed and aqueous sample and overlay sample were pipetted into plates for HPLC analysis. Overlay samples were diluted 1:1 v/v with methanol in the HPLC plate prior to analysis.
# Total olivetol equivalents are defined as the concentration of olivetol in mg/L, plus the concentration of olivetolic acid in mg/L multiplied by the ratio of the molecular weight of olivetol to olivetolic acid.
# [2] = Partitioning of divarinic acid and divarin into organic solvent overlays (96 well deepwell plate, HPLC); format: physicochemical; settings: compared with olivetolic acid and olivetol
# Procedure: Several monoester and one diester overlay candidate were compared to IPM for production of divarinic acid and divarin. LSC3-13 precultures were inoculated from YPD streak plates and grown in 300 μL Delft medium+0.79 g/L complete supplement mixture (CSM) (ForMedium, Norfolk, UK)+2% (w/v) glucose in round-bottom square well 96 well deepwell plates for approximately 18 hours overnight at 30° C. with 950 rpm shaking in an Infors plate shaker. 96 well deepwell plate wells containing 300 μL of Delft medium+CSM+2% (w/v) glucose, 60 μL of different overlay solvents, and 0.08% (w/v) butyric acid, were inoculated with 10 μL of preculture and grown for 30° C. with 950 rpm shaking. After 48 hours, the aqueous layer and overlay were sampled on a Bravo automated liquid handling platform (Agilent) and samples from the aqueous and organic overlay phases were subjected to HPLC analysis to measure divarinic acid and divarin production.
# butyric acid = experiment: Two plasmid screening system for relative AAE activity, butyric acid feeding; format: cell-based, Saccharomyces cerevisiae
# Source text: (§1) In order to perform in vivo screening in Saccharomyces cerevisiae for acyl activating enzyme (AAE) variants with enhanced activity and/or expression, a two plasmid screening system was employed to generate an artificial bottleneck in AAE activity. This bottleneck was generated by natural copy number variation of the two plasmids, with a multi-copy 2 micron episomal plasmid, pLOA-049, harboring an olivetol synthase homologue from C. sativa (CsTKS) fused with a T2A self-cleaving peptide (Kearsey et al., FEBS J. 287:1511-1524, 2020) to a gene encoding olivetol acid cyclase from C. sativa (CsOAC), and a lower copy centromeric plasmid with an autonomous replicating sequence (CEN/ARS) harboring different acyl activating enzymes/acyl-CoA synthetases from different organisms. Markers employed on the 2 micron plasmid were orotidine-5′-phosphate decarboxylase from S. cerevisiae (URA3) and on the CEN/ARS plasmid, the multifunctional histidine biosynthesis gene HIS4 from S. cerevisiae. The cassette architecture in the plasmids was based on integrated cassettes in production strain LSC3-2, with a pGAL1-10 bidirectional promoter driving expression of CsTKS and CsOAC from pGAL1 with a S. cerevisiae CYC1 terminator, and insulated downstream of pGAL10 by a S. cerevisiae GRE3 terminator. Likewise on the CEN/ARS plasmid, a bidirectional pGAL1-10 promoter drives expression of CsAAE1 from pGAL10 with a S. cerevisiae GRE3 terminator, and is insulated downstream of pGAL1 by a S. cerevisiae CYC1 terminator.
# (§2) To screen activity of AAE variants, first a CEN/ARS containing plasmid expressing AAEs co-transformed with the 2 micron plasmid expressing CsTKS translationally fused to CsOAC via the T2A self-cleaving peptide into strain LSC3-297 using the transformation method described by Gietz and Schiestl (Nat. Protocols 2:31-34, 2007). Double plasmid transformants were selected on YNB agar with 2% (w/v) glucose and CSM minus histidine and minus uracil (CSM-His-Ura, Sunrise Science Products) and grown in a 30° C. incubator for approximately 48 hours or at room temperature for approximately 72 hours. Individual colonies were picked into wells of 96 deepwell plates containing 0.3 mL per well of Delft medium with 2% (w/v) glucose and 0.75 g/L CSM-His-Ura. Delft medium base contains (per liter solution) 7.5 g ammonium sulfate, 14.4 g potassium phosphate monobasic (added from a 1 M stock solution adjusted to pH 6.5 with sodium hydroxide), 0.5 g magnesium sulfate heptahydrate, 3.6 mL of a trace metal solution (consisting of 130 g/L citric acid monohydrate, 0.574 g/L copper (II) sulfate pentahydrate, 8.07 g/L iron (III) chloride hexahydrate, 0.5 g/L boric acid, 0.333 g/L manganese (II) chloride, 0.2 g/L sodium molybdate, and 4.67 g/L zinc sulfate heptahydrate), and 1.0 ml of a vitamin solution (0.008 g/L biotin, 1.6 g/L calcium pantothenate, 0.008 g/L folic acid, 8 g/L myo-inositol, 1.6 g/L nicotinic acid, 0.8 g/L p-aminobenzoic acid, 1.6 g/L pyridoxal hydrochloride, 0.8 g/L riboflavin, 1.6 g/L thiamine hydrochloride, adjusted to pH […] with sodium hydroxide). Plates were grown for 16-24 hours at 30° C. in a plate shaker incubator maintained at 80% relative humidity and 900 rpm shaking (3 mm diameter throw). Ten microliters of preculture was then used to inoculate wells of 96 deepwell plates containing 0.3 mL per well of Delft medium with 2% (w/v) glucose, 0.75 g/L CSM-His-Ura, either 9.08 mM butyric acid or 3.44 mM hexanoic acid, and for divarin/divarinic acid, additionally 150 mM 2-(N-morpholino) ethanesulfonic acid (MES) at pH 5.5 and with the additional modification of the 1 M potassium phosphate monobasic stock in the Delft medium base also adjusted to pH 5.5 (for olivetol/olivetolic acid production from hexanoic acid, no MES was added and potassium phosphate monobasic solution used in the Delft medium base was at pH 6.5). […]
# hexanoic acid = experiment: Two plasmid screening system for relative AAE activity, hexanoic acid feeding; format: cell-based, Saccharomyces cerevisiae; settings: average production, LSC3-297/pLOA-049 plus AAE plasmid, Delft medium pH 6.5, 3.44 mM hexanoic acid, 48 hours
# Source text: as §1, §2
# [3] = average production, LSC3-297/pLOA-049 plus AAE plasmid, Delft medium pH 5.5 with 150 mM MES, 9.08 mM butyric acid, 48 hours
molecule,measurement,setting,value
"CCCCCc1cc(O)cc(O)c1C(=O)O [OA, olivetolic acid]",partitioning between overlay and aqueous phase,[1]; IPM overlay,partitioned between the IPM and aqueous phases
same,partitioning between overlay and aqueous phase,[1]; diethyl sebacate overlay,entirely partitioned into diethyl sebacate
"CCCc1cc(O)cc(O)c1 [divarin, 1,3-dihydroxy-5-propylbenzene]",partitioning into monoester overlays,[2],partition less effectively
"CCCc1cc(O)cc(O)c1C(=O)O [divarinic acid, 2,4-dihydroxy-6-propylbenzoic acid]",partitioning into monoester overlays,[2],partition less effectively
B1,Divarin,butyric acid; [3],5.96 mg/L
same,Divarinic acid,butyric acid; [3],5.24 mg/L
same,activity as butyryl-CoA synthetases for divarin and divarinic acid production,butyric acid; over CsAAE1,several-fold activity improvements
same,Olivetol,hexanoic acid,0.86 mg/L
same,Olivetolic acid,hexanoic acid,0.91 mg/L
